Test results taken from US20050164933A1.
No end group written: not given here. *: point of attachment. Biotin = O=C1N[C@H]2[C@H](CS[C@H]2CCCCC(=O)*)N1

Columns and labels:
Test in all cases: G3 assay titration, immobilised GST-PDZ
[1] = target: T1, GST-INADL PDZ domain 3 fusion protein (human), Q8NI35
T1 chain: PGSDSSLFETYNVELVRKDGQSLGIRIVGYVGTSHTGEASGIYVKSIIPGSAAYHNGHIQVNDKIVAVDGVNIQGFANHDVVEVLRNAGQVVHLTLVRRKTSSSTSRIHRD

[2] = target: T2, GST-ZO-1 PDZ domain 2 fusion protein (human)
T2 chain: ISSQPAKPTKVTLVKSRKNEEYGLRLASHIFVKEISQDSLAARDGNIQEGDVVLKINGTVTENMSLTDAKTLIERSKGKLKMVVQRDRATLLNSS

[3] = target: T3, GST-TIP1 PDZ domain 1 fusion protein (human), O14907
T3 chain: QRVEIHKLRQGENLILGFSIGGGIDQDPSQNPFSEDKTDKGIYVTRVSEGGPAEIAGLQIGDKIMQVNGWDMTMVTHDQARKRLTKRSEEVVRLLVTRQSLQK

[4] = target: GST-PAR3L PDZ domain 3 fusion protein (human), Q8TEW8
GST-PAR3L PDZ domain 3 fusion protein (human), Q8TEW8, sequence (Q8TEW8 other isoform, or with tags, fused parts or gaps): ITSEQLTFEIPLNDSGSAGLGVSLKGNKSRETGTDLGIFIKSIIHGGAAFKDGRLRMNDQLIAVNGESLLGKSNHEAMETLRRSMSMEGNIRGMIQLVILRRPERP

[5] = target: T4, GST-SITAC 18 PDZ domain 1 fusion protein (human), Q9H190
T4 chain: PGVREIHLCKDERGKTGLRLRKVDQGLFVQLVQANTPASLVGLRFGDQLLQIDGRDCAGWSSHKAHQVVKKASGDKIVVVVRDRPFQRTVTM

[6] = target: GST-PAR3 PDZ domain 3 fusion protein (human), Q8TEW0
GST-PAR3 PDZ domain 3 fusion protein (human), Q8TEW0, sequence (Q8TEW0 other isoform, or with tags, fused parts or gaps): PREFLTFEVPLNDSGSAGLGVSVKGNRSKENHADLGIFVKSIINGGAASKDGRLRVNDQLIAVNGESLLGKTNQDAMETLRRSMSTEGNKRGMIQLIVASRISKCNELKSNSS

[7] = target: T5, GST-SITAC 18 PDZ domain 2 fusion protein (human), Q9H190
T5 chain: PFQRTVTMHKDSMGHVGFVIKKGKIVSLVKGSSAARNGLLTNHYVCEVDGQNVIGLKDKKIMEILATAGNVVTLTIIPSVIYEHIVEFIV

[8] = target: T6, GST-Syntrophin 1 alpha PDZ domain 1 fusion protein (human), Q13424
T6 chain: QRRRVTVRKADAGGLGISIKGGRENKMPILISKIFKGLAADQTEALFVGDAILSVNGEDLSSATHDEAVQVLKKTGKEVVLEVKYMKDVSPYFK

[9] = target: T7, GST-LIM mystique PDZ domain 1 fusion protein (human), Q96JY6
T7 chain: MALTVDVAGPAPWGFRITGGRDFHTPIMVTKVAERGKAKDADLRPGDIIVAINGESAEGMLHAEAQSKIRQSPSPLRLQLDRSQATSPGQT

[10] = target: T8, GST-MINT1 PDZ domains 1,2 fusion protein (human)
T8 chain: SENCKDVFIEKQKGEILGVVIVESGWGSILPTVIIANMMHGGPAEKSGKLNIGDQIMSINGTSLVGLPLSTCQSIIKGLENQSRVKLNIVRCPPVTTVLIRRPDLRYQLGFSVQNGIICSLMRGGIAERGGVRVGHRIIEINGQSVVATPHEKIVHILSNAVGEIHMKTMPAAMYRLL

[11] = target: T9, GST-MINT1 PDZ domain 2 fusion protein (human)
T9 chain: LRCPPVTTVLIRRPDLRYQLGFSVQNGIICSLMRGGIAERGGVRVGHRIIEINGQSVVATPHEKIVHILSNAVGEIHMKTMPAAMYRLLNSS

[12] = target: T10, GST-MINT1 PDZ domain 1 fusion protein (human)
T10 chain: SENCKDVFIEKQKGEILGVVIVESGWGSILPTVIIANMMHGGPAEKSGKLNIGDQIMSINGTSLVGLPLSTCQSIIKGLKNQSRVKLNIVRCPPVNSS

[13] = target: T11, GST-MUPP1 PDZ domain 3 fusion protein (human), O75970
T11 chain: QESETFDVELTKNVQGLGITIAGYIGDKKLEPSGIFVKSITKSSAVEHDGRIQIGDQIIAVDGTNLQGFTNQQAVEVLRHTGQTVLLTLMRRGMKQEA

[14] = target: T12, GST-MAST2 PDZ domain 1 fusion protein (human), Q6P0Q8
T12 chain: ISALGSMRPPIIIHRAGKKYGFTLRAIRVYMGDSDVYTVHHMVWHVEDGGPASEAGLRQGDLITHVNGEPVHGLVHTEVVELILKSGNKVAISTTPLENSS

[15] = target: T13, GST-KIAA1284 PDZ domain 1 fusion protein (human), Q9ULD6
T13 chain: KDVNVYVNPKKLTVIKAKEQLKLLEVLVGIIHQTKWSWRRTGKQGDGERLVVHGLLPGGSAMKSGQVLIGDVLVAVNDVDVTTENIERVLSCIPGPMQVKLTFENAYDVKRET

[16] = target: T14, GST-RIM2 PDZ domain 1 fusion protein (human)
T14 chain: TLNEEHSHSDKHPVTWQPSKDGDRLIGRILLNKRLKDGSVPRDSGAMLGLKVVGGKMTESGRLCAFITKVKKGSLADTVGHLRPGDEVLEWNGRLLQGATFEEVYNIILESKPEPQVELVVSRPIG

## Biotin-YGRKKRRQRRRARGRRETWV [Peptide #1854 (biotin-…)]
[1]
  EC50: < 0.02 µM
  ODmax (450 nm): 2.1 OD 450 nm
[2]
  ODmax (450 nm): 2.8 OD 450 nm

## Biotin-YGRKKRRQRRREKHFRETEV [Peptide #AA353 (biotin-…)]
[3]
  EC50: < 0.002 µM
  ODmax (450 nm): 3 OD 450 nm

## YGRKKRRQRRRSTNSVRLML (not fully specified)
[4]
  EC50: 0.1 µM
  ODmax (450 nm): 1.97 OD 450 nm
[5]
  EC50: < 1 µM
  ODmax (450 nm): 1.7 OD 450 nm
[6]
  EC50: 0.018 µM
  ODmax (450 nm): 2.5 OD 450 nm
[7]
  EC50: 0.09 µM
  ODmax (450 nm): 1.95 OD 450 nm
[1]
  EC50: 0.12 µM
  ODmax (450 nm): 1.9 OD 450 nm
[8]
  EC50: 0.16 µM
  ODmax (450 nm): 2.05 OD 450 nm
[9]
  EC50: 0.09 µM
  ODmax (450 nm): 2.1 OD 450 nm
[10]
  EC50: 0.18 µM
  ODmax (450 nm): 1.9 OD 450 nm
[11]
  EC50: < 2 µM
  ODmax (450 nm): 0.76 OD 450 nm
[12]
  ODmax (450 nm): 0.33 OD 450 nm
[13]
  EC50: 0.29 µM
  ODmax (450 nm): 2.06 OD 450 nm
[2]
  EC50: 0.033 µM
  ODmax (450 nm): 2.2 OD 450 nm
[14]
  EC50: 0.11 µM
  ODmax (450 nm): 2.1 OD 450 nm
[15]
  ODmax (450 nm): 0.63 OD 450 nm
[3]
  EC50: < 1 µM
  ODmax (450 nm): 1.82 OD 450 nm
[16]
  EC50: 0.047 µM
  ODmax (450 nm): 2.1 OD 450 nm

## Biotin-YGRKKRRQRRRARSDRTIWA [Peptide #1829 (biotin-…)]
[1]
  ODmax (450 nm): 1.4 OD 450 nm
[2]
  EC50: 0.007 µM
  ODmax (450 nm): 2.9 OD 450 nm

## Biotin-YGRKKRRQRRRARSDRTIIA [Peptide #1830 (biotin-…)]
[1]
  EC50: < 2 µM
  ODmax (450 nm): 1.2 OD 450 nm
[2]
  EC50: < 0.02 µM
  ODmax (450 nm): 1.8 OD 450 nm

## Biotin-YGRKKRRQRRRSRTDRKYWA [Peptide #1832 (biotin-…)]
[1]
  EC50: 0.2 µM
  ODmax (450 nm): 0.6 OD 450 nm
[2]
  EC50: < 0.02 µM
  ODmax (450 nm): 2.1 OD 450 nm

## Biotin-YGRKKRRQRRRARGDRKIRV [Peptide #1836 (biotin-…)]
[1]
  ODmax (450 nm): 0.3 OD 450 nm
[2]
  EC50: < 0.01 µM
  ODmax (450 nm): 2.6 OD 450 nm

## Biotin-YGRKKRRQRRRARTDRKVEV [Peptide #1837 (biotin-…)]
[1]
  ODmax (450 nm): 0.37 OD 450 nm
[2]
  EC50: < 0.02 µM
  ODmax (450 nm): 1.8 OD 450 nm

## Biotin-YGRKKRRQRRRARGDRKYIV [Peptide #1838 (biotin-…)]
[1]
  EC50: < 0.1 µM
  ODmax (450 nm): 2.6 OD 450 nm
[2]
  EC50: < 0.1 µM
  ODmax (450 nm): 2.6 OD 450 nm

## Biotin-YGRKKRRQRRRSRTDRKYQI [Peptide #1839 (biotin-…)]
[1]
  EC50: 0.13 µM
  ODmax (450 nm): 1.6 OD 450 nm
[2]
  EC50: < 0.02 µM
  ODmax (450 nm): 2.5 OD 450 nm

## Biotin-YGRKKRRQRRRQDERRLIVL [Peptide #1842 (biotin-…)]
[1]
  EC50: < 1 µM
  ODmax (450 nm): 1.9 OD 450 nm
[2]
  EC50: 0.035 µM
  ODmax (450 nm): 2.3 OD 450 nm

## Biotin-YGRKKRRQRRRARGDRLVSL [Peptide #1843 (biotin-…)]
[1]
  EC50: < 2 µM
  ODmax (450 nm): 1.2 OD 450 nm
[2]
  EC50: 0.017 µM
  ODmax (450 nm): 2.2 OD 450 nm

## Biotin-YGRKKRRQRRRARGTRLVWV [Peptide #1844 (biotin-…)]
[1]
  EC50: < 0.02 µM
  ODmax (450 nm): 2.4 OD 450 nm
[2]
  EC50: < 0.02 µM
  ODmax (450 nm): 2.6 OD 450 nm

## Biotin-YGRKKRRQRRRARGDRYRIV [Peptide #1845 (biotin-…)]
[1]
  EC50: < 0.1 µM
  ODmax (450 nm): 2.2 OD 450 nm
[2]
  EC50: < 0.1 µM
  ODmax (450 nm): 2.3 OD 450 nm

## Biotin-YGRKKRRQRRRARGDRTIIY [Peptide #1848 (biotin-…)]
[1]
  EC50: < 2 µM
  ODmax (450 nm): 1.2 OD 450 nm
[2]
  EC50: < 0.02 µM
  ODmax (450 nm): 2.2 OD 450 nm
